Key:
[1] = biological target: T1, human transferrin receptor 1 (hTfR1) on cell surfaces (human, UniProt P02786 1-760); assay: flow cytometry, Ramos cells
T1 construct: Endogenous receptor on hCMEC/D3, THP-1, K562 and Ramos cells; also called CD71; endogenous hTfR1
Experimental: Binding to hTfR1 on cells was measured on the immortalized human B lymphocyte cell line Ramos (Sigma, cat: 85030802). This cell line is known for expressing high levels of hTfR1 on the cell surface. Fcγ receptors were blocked using Fc receptor blocker (Innovex biosciences, #NB309-4X-40) for 30 min at 4° C., after which the cells were washed in PBS. The cells were seeded in a 96 well V bottom plate (#249570, Thermo Scientific Nunc), and serially diluted Gen 2A constructs were added and the plate was incubated at 4° C. overnight. The cells were washed with PBS with 1% BSA and then fixed with freshly prepared 4% formaldehyde (Thermo Scientific Pierce, #28906) diluted in PBS for 15 min at room temperature. The cells were washed with PBS containing 1% BSA, and then stained. […] Staining was carried out for 30 min at 4° C. After incubation with the detection reagent, cells were washed with PBS containing 1% BSA. The cells were finally resuspended in 200 μl PBS with 1% BSA and acquired using a BD FACSLyric flow cytometer system (BD Biosciences). Samples were analyzed using flowJo software (BD Biosciences).

[2] = biological target: T2, cynomolgus TfR1 (recombinant, construct not stated) (cynomolgus, UniProt H9EXL1 90-760 (rhesus entry)); assay: indirect ELISA of Fabs as for hTfR1, on cTfR1 (coating construct not stated), A450 [upper right panel cTfR1]
T2 construct: also called cTfR1; cynoTfR

[3] = biological target: T3, truncated hTfR1 of SEQ ID NO:86 (human, UniProt P02786 122-760); assay: SPR, hTfR1 amine-coupled, scFv in bispecific format injected
T3 construct: Given only as 'truncated hTfR1'; amine-coupled to a CM5 chip for SPR; also called human TfR1

T1 sequence (P02786 whole entry): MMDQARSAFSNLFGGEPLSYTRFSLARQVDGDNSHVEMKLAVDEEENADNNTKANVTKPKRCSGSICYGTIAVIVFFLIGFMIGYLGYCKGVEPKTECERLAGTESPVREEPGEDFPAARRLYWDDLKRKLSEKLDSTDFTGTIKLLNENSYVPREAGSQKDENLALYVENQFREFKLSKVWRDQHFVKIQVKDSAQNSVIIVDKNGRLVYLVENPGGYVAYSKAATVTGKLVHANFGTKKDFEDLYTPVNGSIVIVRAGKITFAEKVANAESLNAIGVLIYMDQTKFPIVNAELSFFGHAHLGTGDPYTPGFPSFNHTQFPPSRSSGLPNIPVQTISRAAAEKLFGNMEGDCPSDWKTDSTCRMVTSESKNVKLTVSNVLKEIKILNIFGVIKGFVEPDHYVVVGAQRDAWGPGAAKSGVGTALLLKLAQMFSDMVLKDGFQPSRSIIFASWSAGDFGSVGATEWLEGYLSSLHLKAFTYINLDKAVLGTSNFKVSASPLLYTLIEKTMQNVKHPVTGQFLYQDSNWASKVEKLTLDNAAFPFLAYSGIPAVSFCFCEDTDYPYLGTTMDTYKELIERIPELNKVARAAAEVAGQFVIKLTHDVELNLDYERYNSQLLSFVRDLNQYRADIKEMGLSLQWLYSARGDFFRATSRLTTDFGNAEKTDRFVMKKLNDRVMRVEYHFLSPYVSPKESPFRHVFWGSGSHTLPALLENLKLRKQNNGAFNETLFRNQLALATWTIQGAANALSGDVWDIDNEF

B1: 2A-3 #8 (bispecific antibody, human IgG1, kappa)
heavy: not shown
chain: DIVMTQAPLSLPVSLGDQASISCRSSQSIVHSNGNTYLEWYLQKPGQSPKLLIYKVSNRFSGVPDRFSGSGSGTDFTLKISRVEAEDLGIYYCFQGSHVPPTFGGGTKLEIKRTVAAPSVFIFPPSDEQLKSGTASVVCLLNNFYPREAKVQWKVDNALQSGNSQESVTEQDSKDSTYSLSSTLTLSKADYEKHKVYACEVTHQGLSSPVTKSFNRGECGGGGSDIQMTQSPSSVSASVGDRVTITCKSSQSLLYSTNQKNYLAWYQQKPGKAPKLLIYWASTRESGVPSRFSGSGSGTDFTLTISSLQPEDFATYYCQQYFIYPRTFGQGTKVEIKGGGGSGGGGSGGGGSEVQLVQSGAEVKKPGSSVKVSCKASGYIFTDYNMDWVRQAPGQGLEWIGDINPDADTTSYNEKFKGRATLTVDKSTSTAYMELSSLRSEDTAVYYCARGGYSGSSYYHPMDYWGQGTLVTVSSGGGGSGGGGSGGGGSGGGGSDIVMTQAPLSLPVSLGDQASISCRSSQSIVHSNGNTYLEWYLQKPGQSPKLLIYKVSNRFSGVPDRFSGSGSGTDFTLKISRVEAEDLGIYYCFQGSHVPPTFGGGTKLEIKRTVAAPSVFIFPPSDEQLKSGTASVVCLLNNFYPREAKVQWKVDNALQSGNSQESVTEQDSKDSTYSLSSTLTLSKADYEKHKVYACEVTHQGLSSPVTKSFNRGEC
notes: also called Gen 2A construct #8; VL first
B1: binds [1].

B2: 2A-3 #6 (bispecific antibody, human IgG1, kappa)
heavy: not shown
chain: DIVMTQAPLSLPVSLGDQASISCRSSQSIVHSNGNTYLEWYLQKPGQSPKLLIYKVSNRFSGVPDRFSGSGSGTDFTLKISRVEAEDLGIYYCFQGSHVPPTFGGGTKLEIKRTVAAPSVFIFPPSDEQLKSGTASVVCLLNNFYPREAKVQWKVDNALQSGNSQESVTEQDSKDSTYSLSSTLTLSKADYEKHKVYACEVTHQGLSSPVTKSFNRGECGGGGSGGGGSGGGGSEVQLVQSGAEVKKPGSSVKVSCKASGYIFTDYNMDWVRQAPGQGLEWIGDINPDADTTSYNEKFKGRATLTVDKSTSTAYMELSSLRSEDTAVYYCARGGYSGSSYYHPMDYWGQGTLVTVSSGGGGSGGGGSGGGGSDIQMTQSPSSVSASVGDRVTITCKSSQSLLYSTNQKNYLAWYQQKPGKAPKLLIYWASTRESGVPSRFSGSGSGTDFTLTISSLQPEDFATYYCQQYFIYPRTFGQGTKVEIKGGGGSGGGGSGGGGSGGGGSGGGGSDIVMTQAPLSLPVSLGDQASISCRSSQSIVHSNGNTYLEWYLQKPGQSPKLLIYKVSNRFSGVPDRFSGSGSGTDFTLKISRVEAEDLGIYYCFQGSHVPPTFGGGTKLEIKRTVAAPSVFIFPPSDEQLKSGTASVVCLLNNFYPREAKVQWKVDNALQSGNSQESVTEQDSKDSTYSLSSTLTLSKADYEKHKVYACEVTHQGLSSPVTKSFNRGEC
notes: also called Gen 2A construct #6; VH first
B2: binds [1].

B3: 2A-3 #3 (bispecific antibody, human IgG1, kappa)
heavy: not shown
chain: DIVMTQAPLSLPVSLGDQASISCRSSQSIVHSNGNTYLEWYLQKPGQSPKLLIYKVSNRFSGVPDRFSGSGSGTDFTLKISRVEAEDLGIYYCFQGSHVPPTFGGGTKLEIKRTVAAPSVFIFPPSDEQLKSGTASVVCLLNNFYPREAKVQWKVDNALQSGNSQESVTEQDSKDSTYSLSSTLTLSKADYEKHKVYACEVTHQGLSSPVTKSFNRGECGGGGSGGGGSGGGGSEVQLVQSGAEVKKPGSSVKVSCKASGYIFTDYNMDWVRQAPGQGLEWIGDINPDADTTSYNEKFKGRATLTVDKSTSTAYMELSSLRSEDTAVYYCARGGYSGSSYYHPMDYWGQGTLVTVSSGGGGSGGGGSGGGGSDIQMTQSPSSVSASVGDRVTITCKSSQSLLYSTNQKNYLAWYQQKPGKAPKLLIYWASTRESGVPSRFSGSGSGTDFTLTISSLQPEDFATYYCQQYFIYPRTFGQGTKVEIKGGGGSGGGGSGGGGSGGGGSDIVMTQAPLSLPVSLGDQASISCRSSQSIVHSNGNTYLEWYLQKPGQSPKLLIYKVSNRFSGVPDRFSGSGSGTDFTLKISRVEAEDLGIYYCFQGSHVPPTFGGGTKLEIKRTVAAPSVFIFPPSDEQLKSGTASVVCLLNNFYPREAKVQWKVDNALQSGNSQESVTEQDSKDSTYSLSSTLTLSKADYEKHKVYACEVTHQGLSSPVTKSFNRGEC
notes: also called Gen 2A construct #3; VH first
B3: binds [1].

B4: 2A-3 #5 (bispecific antibody, human IgG1, kappa)
heavy: not shown
chain: DIVMTQAPLSLPVSLGDQASISCRSSQSIVHSNGNTYLEWYLQKPGQSPKLLIYKVSNRFSGVPDRFSGSGSGTDFTLKISRVEAEDLGIYYCFQGSHVPPTFGGGTKLEIKRTVAAPSVFIFPPSDEQLKSGTASVVCLLNNFYPREAKVQWKVDNALQSGNSQESVTEQDSKDSTYSLSSTLTLSKADYEKHKVYACEVTHQGLSSPVTKSFNRGECGGGGSGGGGSEVQLVQSGAEVKKPGSSVKVSCKASGYIFTDYNMDWVRQAPGQGLEWIGDINPDADTTSYNEKFKGRATLTVDKSTSTAYMELSSLRSEDTAVYYCARGGYSGSSYYHPMDYWGQGTLVTVSSGGGGSGGGGSGGGGSDIQMTQSPSSVSASVGDRVTITCKSSQSLLYSTNQKNYLAWYQQKPGKAPKLLIYWASTRESGVPSRFSGSGSGTDFTLTISSLQPEDFATYYCQQYFIYPRTFGQGTKVEIKGGGGSGGGGSGGGGSGGGGSGGGGSDIVMTQAPLSLPVSLGDQASISCRSSQSIVHSNGNTYLEWYLQKPGQSPKLLIYKVSNRFSGVPDRFSGSGSGTDFTLKISRVEAEDLGIYYCFQGSHVPPTFGGGTKLEIKRTVAAPSVFIFPPSDEQLKSGTASVVCLLNNFYPREAKVQWKVDNALQSGNSQESVTEQDSKDSTYSLSSTLTLSKADYEKHKVYACEVTHQGLSSPVTKSFNRGEC
notes: also called Gen 2A construct #5; VH first
B4: binds [1].

B5: h26D3-Fab (Fab, V domains shown)
VH: EVQLVQSGAEVKKPGSSVKVSCKASGYIFTDYNMDWVRQAPGQGLEWIGDINPDYDTTSYNEKFKGRATLTVDKSTSTAYMELSSLRSEDTAVYYCARGGYSGSSYYHPMDYWGQGTLVTVSS
VL: DIQMTQSPSSVSASVGDRVTITCKSSQSLLYSTNQKNYLAWYQQKPGKAPKLLIYWASTRESGVPSRFSGSGSGTDFTLTISSLQPEDFATYYCQQYFIYPRTFGQGTKVEIK
notes: His-tagged Fab from ExpiCHO; also called humanized 26D3 Fab
B5 was tested, and the “EC50 (read off the curve)” value [2] was about 1 nM.

B6: bispecific binding molecule (format of WO2022/258841) comprising h26D3 LC1 scFv (bispecific antibody, V domains shown)
VH: EVQLVQSGAEVKKPGSSVKVSCKASGYIFTDYNMDWVRQAPGQGLEWIGDINPDYDTTSYNEKFKGRATLTVDKSTSTAYMELSSLRSEDTAVYYCARGGYSGSSYYHPMDYWGQGTLVTVSS
VL: DIQMTQSPSSVSASVGDRVTITCKSSQSLLASTNQKNYLAWYQQKPGKAPKLLIYWASTRESGVPSRFSGSGSGTDFTLTISSLQPEDFATYYCQQYFIYPRTFGQGTKVEIK
With B6 the Kd [3] was about 40 nM.

B7: bispecific binding molecule (format of WO2022/258841) comprising h26D3 HC6 scFv (bispecific antibody, V domains shown)
VH: EVQLVQSGAEVKKPGSSVKVSCKASGYIFTDYNMDWVRQAPGQGLEWIGDINPDADTTSYNEKFKGRATLTVDKSTSTAYMELSSLRSEDTAVYYCARGGYSGSSYYHPMDYWGQGTLVTVSS
VL: DIQMTQSPSSVSASVGDRVTITCKSSQSLLYSTNQKNYLAWYQQKPGKAPKLLIYWASTRESGVPSRFSGSGSGTDFTLTISSLQPEDFATYYCQQYFIYPRTFGQGTKVEIK
With B7 the Kd [3] was 100 to 200 nM.

B8: bispecific binding molecule (format of WO2022/258841) comprising h26D3 LC5 scFv (bispecific antibody, V domains shown)
VH: EVQLVQSGAEVKKPGSSVKVSCKASGYIFTDYNMDWVRQAPGQGLEWIGDINPDYDTTSYNEKFKGRATLTVDKSTSTAYMELSSLRSEDTAVYYCARGGYSGSSYYHPMDYWGQGTLVTVSS
VL: DIQMTQSPSSVSASVGDRVTITCKSSQSLLYSTNQKNYLAWYQQKPGKAPKLLIYWASTRESGVPSRFSGSGSGTDFTLTISSLQPEDFATYYCQQAFIYPRTFGQGTKVEIK
B8 was tested, and the Kd [3] was 400 to 500 nM.

From patent US20260274980A1 (BIOARCTIC, published 2026)
